Experimental data: article PMC12350670

B1: H4-Fc (Fc fusion)
chain: ARVDQTPQTITKETGESLTINCVLRDSNCALSSTYWYRKKSGSTNEESISKGGRYVETVNSGSKSFSLRINDLTVEDSGTYRCNVYVAGMSPCLSWGDVYGDGTAVTVN
B2: NGS2405-Fc (Fc fusion)
chain: ARVDQTPQTITKETGESLTINCVLRDSNCALSFTYWYRKKSGSTNEESISKGGRYVETVNSGSKSFSLRINDLTVEDSGTYRCNVYVGGGCPHWIDVYGDGTAVTVN

Biological target: recombinant mouse fibroblast activation protein (mouse) (UniProt P97321)
Experiment: BLI; biotinylated bait protein (30 nM) loaded on Octet streptavidin (SAX) biosensors; serially diluted VNAR-Fc (300-0.412 nM) as analyte; PBS with 1% BSA; kinetic analysis with a bivalent analyte model

recombinant mouse fibroblast activation protein (mouse), sequence (P97321 whole entry): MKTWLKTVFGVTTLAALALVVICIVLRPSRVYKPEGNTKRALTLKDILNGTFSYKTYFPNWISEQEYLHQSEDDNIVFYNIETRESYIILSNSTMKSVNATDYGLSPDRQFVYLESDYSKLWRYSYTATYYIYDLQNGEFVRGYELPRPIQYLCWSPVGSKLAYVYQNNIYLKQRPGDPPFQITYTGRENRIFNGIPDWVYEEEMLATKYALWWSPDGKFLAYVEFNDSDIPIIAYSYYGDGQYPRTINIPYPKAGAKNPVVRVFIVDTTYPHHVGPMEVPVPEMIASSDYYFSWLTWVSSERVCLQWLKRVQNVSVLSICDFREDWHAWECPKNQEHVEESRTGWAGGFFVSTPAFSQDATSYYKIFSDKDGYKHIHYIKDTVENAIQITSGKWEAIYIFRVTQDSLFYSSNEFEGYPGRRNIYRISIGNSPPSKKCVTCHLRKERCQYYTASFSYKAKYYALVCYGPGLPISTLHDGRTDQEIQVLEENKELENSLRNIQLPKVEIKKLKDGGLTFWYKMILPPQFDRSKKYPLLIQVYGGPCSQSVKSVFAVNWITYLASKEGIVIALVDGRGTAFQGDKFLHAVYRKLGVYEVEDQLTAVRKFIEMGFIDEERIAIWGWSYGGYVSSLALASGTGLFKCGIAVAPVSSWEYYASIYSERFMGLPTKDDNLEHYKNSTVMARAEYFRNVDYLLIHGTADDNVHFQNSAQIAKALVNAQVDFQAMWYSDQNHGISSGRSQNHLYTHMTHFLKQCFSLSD

| Binder | Kd [nM] |
| --- | --- |
| B1 | 14.2 |
| B2 | 79.5 |
